From the nanobody polyreactivity screen of Harvey et al. (2022)

test: yeast display, Sf9 membrane polyspecificity reagent, FACS + sequencing; frameworks hold sequencing errors
How it was run: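 Using colony PCR, genes from sorted yeast display clones were amplified, then sequenced on MiSeq at 2 × 250 and filtered by CDR length. The clones had been stained with 10% biotinylated, detergent-solubilized Sf9 membrane reagent for 1 hour at 4 °C and sorted by FACS into low and high (top ~1%) gates on anti-HA and streptavidin fluorescence. Polyreactivity labels come from the gate of origin.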

Question: For “QVQLVESGGGLVQAGGSLRLSCAASGITLTKNAMGWYRQAPGKERELVAGITRGSRTNYADSVKGRFTISRDNAKNTVYLQMNSLKPEDTAVYYCAASYGPYRGPVGGSKMYYWGQGTQVTVSS”, which “polyreactivity (PSR sort gate)” value is on record?
Answer: The value was “high polyreactivity”.

Question: For “QVQLVESGGGLVQAGGSLRLSCAASGITLTKNAMGWYRQAPGKERELVAGITRGSRTNYADSVKGRFTISRDNAKNTVYLQMNSLKPEDTAVYYCAASYWPYRGPVGGSKMYYWGQGTQVTVSS”, which “polyreactivity (PSR sort gate)” value is on record?
Answer: The value was “high polyreactivity”.

Question: Which “polyreactivity (PSR sort gate)” value does the source give for “QVQLVESGGGLVQAGGSLRLSCAASGITLTRYAMGWYRQAPGKDRELVAAISTGGGSTYYADSVKGRFTISRDNAKNTVYLQMNSLKPEDTAVYYCAARIRFARGYPITRTYDYWGQGTQVTVSS” here?
Answer: Its value is “high polyreactivity”.

Question: With “QVQLVESGGGLVQAGGSLRLSCAASGITLVSYARGWYRQAPGKERELVAAISWSGGRTFYADSVKGRFTISRDNAKNTVYLQMNRLKPEDTAVYYCNTAQYPYFYSHVSYPHDYWGQGTQVTVSS” as the sequence, how does the “polyreactivity (PSR sort gate)” value read?
Answer: The value was “high polyreactivity”.

Question: Which “polyreactivity (PSR sort gate)” value does the source give for “QVQLVESGGGLVQAGGSLRLSCAASGITLYEYAMGWYRQAPGKERELVAAMSTSGGRTRYADSVKGRFTISRDNAKNTVYLQMNSLKPEDTAVYYCNRLYGPGFKSVYGYDYWGQGTQVTVSS” here?
Answer: The value was “high polyreactivity”.

Question: For “QVQLVESGGGLVQAGGSLRLSCAASGITLYRYAMGWYRLAPGKERELVADISSGGGTTYYADSVKGRFTISRDNAKNTVYLQMNSLKPEDTAVYYCAADYGFRYPLYEFWGQGTQVTVSS”, which “polyreactivity (PSR sort gate)” value is on record?
Answer: The value was “low polyreactivity”.

Question: With “QVQLVESGGGLVQAGGSLRLSCAASGITPDYAMGWYRQAPGTERELVAAITWSGGRTYYADSVKGRFTISRDNAKNTVYLQMNSLKPEDTAVYYCAAEHYLGYDYWGQGTQVTVSS” as the sequence, how does the “polyreactivity (PSR sort gate)” value read?
Answer: The value was “low polyreactivity”.

Question: For “QVQLVESGGGLVQAGGSLRLSCAASGITSFFYDMGWYRQAPGKERELVAGISSGGSTNYADSVKGRFTISRDNAKNTVYLQMNSLKPEDTAVSYCAKDYPHTVSLGEYDYWGQGTQVTVSS”, which “polyreactivity (PSR sort gate)” value is on record?
Answer: The value was “high polyreactivity”.

Question: For “QVQLVESGGGLVQAGGSLRLSCAASGITSHWYVMGWYRQAPGKERELVAAINSSGGRTSYADSVKGRFTISRDNAKNTVYLQMNSLKPEDTAVYYCAAGYTHSYFLGATGKVDYWGQGTQVTVSS”, which “polyreactivity (PSR sort gate)” value is on record?
Answer: The value was “low polyreactivity”.

Question: Which “polyreactivity (PSR sort gate)” value does the source give for “QVQLVESGGGLVQAGGSLRLSCAASGITSPSYAMGWYRQAPGKERELVAAISKNGVRTYYADSVKGRFTISRDNAKNTVYLQMNSLKPEDTAVYYCAARYNPLYATLYRRMDYWGQGTQVTVSS” here?
Answer: The value was “high polyreactivity”.

Question: For “QVQLVESGGGLVQAGGSLRLSCAASGITTTVYAMGWYRQAPGKERELVAGISWSTSSTYYADSVKGRFTISRDNAKNTVYLQMNSLKPEDNAVYYCAVYTITGRVLRQGPLYRHYYWGQGTQVTVSS”, which “polyreactivity (PSR sort gate)” value is on record?
Answer: The value was “high polyreactivity”.

Question: Which “polyreactivity (PSR sort gate)” value does the source give for “QVQLVESGGGLVQAGGSLRLSCAASGITYTDYDLGCYRQAPGKERELVAAISNGGGSTYYADSVKGRFTISRDNAKNTVYLQMNSLKPEDTGVYYWAAERVPSWWVEWGVAQWDDYWGQGTQVTVSS” here?
Answer: The value was “low polyreactivity”.

Question: Which “polyreactivity (PSR sort gate)” value does the source give for “QVQLVESGGGLVQAGGSLRLSCAASGITYYRYTMGWYRQAPGKDRELVASINWSGTRTYYADSVKGRFTISRDNAKNTVYLLMNSLKPEDTAVYYCAAKGAQGTSRRWFDYWGQGTQVTVSS” here?
Answer: The value was “high polyreactivity”.

Question: For “QVQLVESGGGLVQAGGSLRLSCAASGIYSYVMGWYRQAPGKERELVAAISGTGGRTYYADSVKGRFTISRDNAKNTVYLQMNSLKPEDTAVYYCAARGIYQPKTFDYWGQGTQVTVSS”, which “polyreactivity (PSR sort gate)” value is on record?
Answer: Its value is “high polyreactivity”.

Question: For “QVQLVESGGGLVQAGGSLRLSCAASGKIFFRYTLGWYRQAPGKERELVAAISASGGSTYYADSVKGRFTISRDNAKNTVYLQMNSLKPEDTSVYYCAARILHYTSEYYYWGQGTQVTVSS”, which “polyreactivity (PSR sort gate)” value is on record?
Answer: The value was “low polyreactivity”.

Question: Which “polyreactivity (PSR sort gate)” value does the source give for “QVQLVESGGGLVQAGGSLRLSCAASGKIFYEYTMGWYRQAPGKERELVAAISWSGVSTYYADSVKGRFTISRDNAKNTVYLQMNSLKPEDTAVYYCAADRGNDYWGQGTQVTVSS” here?
Answer: The value was “low polyreactivity”.

Question: For “QVQLVESGGGLVQAGGSLRLSCAASGKTFPANAMGWYRPAPGKERELVADISVSDGSTYYADSVKGRFTISRDNAKNTVYLQMNSLKPQDTAVYYCNARKRPNFYVKSFTQIGGRFDYWGQGTQVTVSS”, which “polyreactivity (PSR sort gate)” value is on record?
Answer: The value was “low polyreactivity”.

Question: With “QVQLVESGGGLVQAGGSLRLSCAASGLDYYAMGWYRQAPGKERELVAAIDWSGVSTYYADSVKGRFTISRDNAKNSVYLQMNSLKPEDTAVYYCAALYDGWPRVSYGLGEYGYWGQGTQVTVSS” as the sequence, how does the “polyreactivity (PSR sort gate)” value read?
Answer: Its value is “low polyreactivity”.

Question: With “QVQLVESGGGLVQAGGSLRLSCAASGLIFANYAMGWYRQAPGKERELVAAITWSGGTTYYADSVKGRFTISRDNAKNTVYLQMNSLKPEDTAVYYCAAEVPYYQAAEYDYWGQGTQVTVSS” as the sequence, how does the “polyreactivity (PSR sort gate)” value read?
Answer: The value was “low polyreactivity”.

Question: For “QVQLVESGGGLVQAGGSLRLSCAASGLIFARNAMVWYRQAPGKERELVAAIAKRGGSTFYADSVKVRFTISRDNAKNTVYLQMNSLKPEDTAVYYCNARSSETWHGDYWGQGTQVTVSS”, which “polyreactivity (PSR sort gate)” value is on record?
Answer: The value was “high polyreactivity”.

Question: For “QVQLVESGGGLVQAGGSLRLSCAASGLIFARYAMGWYRQAPGKERELVAAISSRGGGTYYADSVKGRFTISRDNAKNTVYLQMNSLKPEDTAVYYCNRLRGTPVGLSIGGYYYWGQGTQVTVSS”, which “polyreactivity (PSR sort gate)” value is on record?
Answer: The value was “high polyreactivity”.

Question: With “QVQLVESGGGLVQAGGSLRLSCAASGLIFARYAMGWYRQAPGKERELVAAISSSGVSTDYADSVKGRFTISRDNAKNTVYLQMNSLKPEDTAVYYCAKRTGSRVRGGKYGYWGQGTQVTVSS” as the sequence, how does the “polyreactivity (PSR sort gate)” value read?
Answer: Its value is “high polyreactivity”.

Question: Which “polyreactivity (PSR sort gate)” value does the source give for “QVQLVESGGGLVQAGGSLRLSCAASGLIFATTVLGWYRQAPGKERELVASITTSGSRTYYADSVKGRFTISRDNAKNTVYLQMNSLKPEDTAVYYCAAYPTYLTPSSPGYDYWGQGTQVTVSS” here?
Answer: Its value is “high polyreactivity”.

Question: With “QVQLVESGGGLVQAGGSLRLSCAASGLIFAVYAMGWYRQAPGKERELVAGISASAASTYYADSVKGRFTISRDNAKNTVYLQMNSLKPEDTAVYYCAADFYWFWTYGTLWYGYEYWGQGTQVTVSS” as the sequence, how does the “polyreactivity (PSR sort gate)” value read?
Answer: Its value is “high polyreactivity”.

Question: Which “polyreactivity (PSR sort gate)” value does the source give for “QVQLVESGGGLVQAGGSLRLSCAASGLIFAWYAMGWYRQAPGKERELVATISWNGDRTYYADSVKGRFTISRDNAKNTVYLQMNSLKPEDTAVYYCAARFGSGFNYWGQGTQVTVSS” here?
Answer: Its value is “high polyreactivity”.

Question: Which “polyreactivity (PSR sort gate)” value does the source give for “QVQLVESGGGLVQAGGSLRLSCAASGLIFDDYAMGWYRQAPGKERELVAAISWSDGTTYYADSVKGRFTISRDNAKNTVYLQMNSLKTEDTAVYYCAAEEVSGWEYDYWGQGTQVTVSS” here?
Answer: The value was “high polyreactivity”.

Question: For “QVQLVESGGGLVQAGGSLRLSCAASGLIFDPYAMGWYRQAPGKERELVADISSGGSTNYADSVKGRFTISRDNAKNTVYLQMTSLKPEDTAVYYCNKTIILDGYYFSLTLYDSWGQGTQVTVSS”, which “polyreactivity (PSR sort gate)” value is on record?
Answer: The value was “low polyreactivity”.

Question: With “QVQLVESGGGLVQAGGSLRLSCAASGLIFDWYAMGWYRQAPGKERELVADISYSGGSTNYADSVKGRFTISRDNAKNTVYLQMNSLKPEDTAVYYCAADDYWTPFGYWGQGTQVTVSS” as the sequence, how does the “polyreactivity (PSR sort gate)” value read?
Answer: Its value is “low polyreactivity”.

Question: With “QVQLVESGGGLVQAGGSLRLSCAASGLIFDYYAMGWYRQAPGKERELVASINNRGGSTFYADSVKGRFTISRDNAKNTVYLQMNSLKPEDTAVYYCNAVRRTGGHGDYWGQGTQVTVSS” as the sequence, how does the “polyreactivity (PSR sort gate)” value read?
Answer: The value was “high polyreactivity”.

Question: For “QVQLVESGGGLVQAGGSLRLSCAASGLIFDYYPMGWYRTAPGKERELVAAISYSGGRTYYADSVKGRFTISRDKAKNTVYLQMNSLKPEDTAVYYCNKVVLQPVIVDHDYWGQGTQVTVSS”, which “polyreactivity (PSR sort gate)” value is on record?
Answer: Its value is “low polyreactivity”.

Question: Which “polyreactivity (PSR sort gate)” value does the source give for “QVQLVESGGGLVQAGGSLRLSCAASGLIFESNAMGWYRQAPGKGRELVAAITTNGGSTYYADSVKGRFTISRDKGKNTVYLQMNSLKPEDTAVYYCAARFSYRSYDYWGQGTQVTVSS” here?
Answer: The value was “low polyreactivity”.

Question: With “QVQLVESGGGLVQAGGSLRLSCAASGLIFFPKAMGGYRPAPGKERELVAYITWSGGGTNYSDSVKGRFTISRDNAKNTVYLQMNSLKPEDTAVYYCNADGTRDYFSLITGSYSVTYDYWGQGTQVTVSS” as the sequence, how does the “polyreactivity (PSR sort gate)” value read?
Answer: Its value is “high polyreactivity”.

Question: Which “polyreactivity (PSR sort gate)” value does the source give for “QVQLVESGGGLVQAGGSLRLSCAASGLIFFYYTMGWYRQAPGKERELVAAISQSGGRTYYADSVKGRFTISRDNAKNTVYLQMNSLKPEDTAVYYCAAAVRYRGDEFDYWGQGTQVTVSS” here?
Answer: The value was “low polyreactivity”.

Question: For “QVQLVESGGGLVQAGGSLRLSCAASGLIFGPYTMGWYRQAPGKERELVAAISRSGGITYYADSEKGRFTISRDNAKNTVYLQMNSLKPEDTAGYYCAARYSTQWSRYDYWGQGTQVTVSS”, which “polyreactivity (PSR sort gate)” value is on record?
Answer: The value was “high polyreactivity”.

Question: With “QVQLVESGGGLVQAGGSLRLSCAASGLIFGRNAMGWYRQAPGKERELVAAISWSGGSTYYADSVKGRFTISRDNAKNTVYLEMKSLKPEDTAVYYCYRYRYYGSEDDYWGQCTQVTVSS” as the sequence, how does the “polyreactivity (PSR sort gate)” value read?
Answer: Its value is “high polyreactivity”.

Question: For “QVQLVESGGGLVQAGGSLRLSCAASGLIFGRNAMGWYRQAPGKERELVAAISWSGGSTYYADSVKGRFTISRDNAKNTVYLQMNSLKPEDTAVYYCNRYRYYGSEDDYWGQGTQVTVSS”, which “polyreactivity (PSR sort gate)” value is on record?
Answer: The value was “high polyreactivity”.

Question: With “QVQLVESGGGLVQAGGSLRLSCAASGLIFGRNAMGWYRQAPGKERELVAAITSGGSTYYADSVKGRFTISRDNAKNTVYLQMNSLKPEDTAVYYCAADVVDLYLLDYWGQGTQVTVSS” as the sequence, how does the “polyreactivity (PSR sort gate)” value read?
Answer: Its value is “low polyreactivity”.

Question: Which “polyreactivity (PSR sort gate)” value does the source give for “QVQLVESGGGLVQAGGSLRLSCAASGLIFGSYVMGWYRQAPGKERELVAAITVRTGTTYYADSVKGRFTISRDNAKNTVYLQMNSLKPEDTAVYYCARRYRPKYGYWGQGTQVTVSS” here?
Answer: Its value is “high polyreactivity”.

Question: With “QVQLVESGGGLVQAGGSLRLSCAASGLIFGTYAMGWYRQAPGKERELVAVISSSGGSTYYADSVKGRFTISRDNAKNTVYLQLNSLKPEDTAVYYCNARAFRQGHFEYDYWGQGTQVTVSS” as the sequence, how does the “polyreactivity (PSR sort gate)” value read?
Answer: The value was “low polyreactivity”.

Question: For “QVQLVESGGGLVQAGGSLRLSCAASGLIFGYNAMGWYRQAPGKEREYVAGISVIDGRTYYADSVKGRFTISRDNAKNTVYLQMNSLKPEDTAVYYCATEGFVYSWLWEFEYWGQGNQVTVSS”, which “polyreactivity (PSR sort gate)” value is on record?
Answer: Its value is “low polyreactivity”.
